According to the supplement of paper PMC9112550, “Optimization of the antimicrobial peptide Bac7 by deep mutational scanning” (BMC Biology, 2022):

Tested on: Escherichia coli TOP10
Experiment: shrunken log2 fold change of peptide-encoding DNA abundance (4.5 h post-induction vs induction); higher = less antimicrobial activity (less host growth inhibition)
Settings: time post-induction: 4.5 h; library: site-saturation at positions 5, 18, 19, 20
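Note: peptides expressed intracellularly from a pBAD plasmid library in pooled LB shake-flask culture, induced with 0.3% L-arabinose, DNA abundance read by NGS, three biological replicates, DESeq2 with apeglm shrinkage.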

RRIRHRPPRLPRPRPRPFCSPRP
shrunken log2 fold change: -0.171

RRIRHRPPRLPRPRPRPFDKPRP
shrunken log2 fold change: -0.118

RRIRHRPPRLPRPRPRPFDWPRP
shrunken log2 fold change: -0.0238

RRIRHRPPRLPRPRPRPFFRPRP
shrunken log2 fold change: -0.0964

RRIRHRPPRLPRPRPRPFFYPRP
shrunken log2 fold change: -0.4

RRIRHRPPRLPRPRPRPFGCPRP
shrunken log2 fold change: 0.0728

RRIRHRPPRLPRPRPRPFGVPRP
shrunken log2 fold change: -0.326

RRIRHRPPRLPRPRPRPFHLPRP
shrunken log2 fold change: -0.438

RRIRHRPPRLPRPRPRPFIRPRP
shrunken log2 fold change: 0.00659

RRIRHRPPRLPRPRPRPFKLPRP
shrunken log2 fold change: -0.196

RRIRHRPPRLPRPRPRPFKPPRP
shrunken log2 fold change: -0.163

RRIRHRPPRLPRPRPRPFKVPRP
shrunken log2 fold change: -0.0904

RRIRHRPPRLPRPRPRPFLTPRP
shrunken log2 fold change: -0.217

RRIRHRPPRLPRPRPRPFMQPRP
shrunken log2 fold change: -0.348

RRIRHRPPRLPRPRPRPFPAPRP
shrunken log2 fold change: -0.405

RRIRHRPPRLPRPRPRPFPSPRP
shrunken log2 fold change: 0.0517

RRIRHRPPRLPRPRPRPFQAPRP
shrunken log2 fold change: -0.312

RRIRHRPPRLPRPRPRPFQMPRP
shrunken log2 fold change: -0.0675

RRIRHRPPRLPRPRPRPFQQPRP
shrunken log2 fold change: -0.0263

RRIRHRPPRLPRPRPRPFRGPRP
shrunken log2 fold change: -0.254

RRIRHRPPRLPRPRPRPFSLPRP
shrunken log2 fold change: -0.277

RRIRHRPPRLPRPRPRPFVQPRP
shrunken log2 fold change: -0.14

RRIRHRPPRLPRPRPRPFWRPRP
shrunken log2 fold change: -0.0343

RRIRHRPPRLPRPRPRPGAPPRP
shrunken log2 fold change: 0.384

RRIRHRPPRLPRPRPRPGCDPRP
shrunken log2 fold change: 0.123

RRIRHRPPRLPRPRPRPGDGPRP
shrunken log2 fold change: 0.209

RRIRHRPPRLPRPRPRPGGMPRP
shrunken log2 fold change: 0.274

RRIRHRPPRLPRPRPRPGHQPRP
shrunken log2 fold change: -0.149

RRIRHRPPRLPRPRPRPGINPRP
shrunken log2 fold change: -0.422

RRIRHRPPRLPRPRPRPGIRPRP
shrunken log2 fold change: -0.00441

RRIRHRPPRLPRPRPRPGKEPRP
shrunken log2 fold change: -0.0977

RRIRHRPPRLPRPRPRPGNGPRP
shrunken log2 fold change: 0.278

RRIRHRPPRLPRPRPRPGNRPRP
shrunken log2 fold change: 0.013

RRIRHRPPRLPRPRPRPGPEPRP
shrunken log2 fold change: 1.6

RRIRHRPPRLPRPRPRPGPRPRP
shrunken log2 fold change: 0.417

RRIRHRPPRLPRPRPRPGPSPRP
shrunken log2 fold change: 0.188

RRIRHRPPRLPRPRPRPGRWPRP
shrunken log2 fold change: 0.413

RRIRHRPPRLPRPRPRPGSHPRP
shrunken log2 fold change: -0.226

RRIRHRPPRLPRPRPRPGVHPRP
shrunken log2 fold change: -0.9

RRIRHRPPRLPRPRPRPGVIPRP
shrunken log2 fold change: -0.0357

RRIRHRPPRLPRPRPRPGVLPRP
shrunken log2 fold change: 0.0408

RRIRHRPPRLPRPRPRPGWAPRP
shrunken log2 fold change: 0.344

RRIRHRPPRLPRPRPRPGWQPRP
shrunken log2 fold change: 0.33

RRIRHRPPRLPRPRPRPHARPRP
shrunken log2 fold change: 0.0947

RRIRHRPPRLPRPRPRPHCKPRP
shrunken log2 fold change: -0.0178

RRIRHRPPRLPRPRPRPHDDPRP
shrunken log2 fold change: -0.0997

RRIRHRPPRLPRPRPRPHFWPRP
shrunken log2 fold change: -0.0607

RRIRHRPPRLPRPRPRPHHAPRP
shrunken log2 fold change: -0.0366

RRIRHRPPRLPRPRPRPHHPPRP
shrunken log2 fold change: 0.0301

RRIRHRPPRLPRPRPRPHKGPRP
shrunken log2 fold change: -0.277

RRIRHRPPRLPRPRPRPHMKPRP
shrunken log2 fold change: 0.181

RRIRHRPPRLPRPRPRPHNMPRP
shrunken log2 fold change: -0.364

RRIRHRPPRLPRPRPRPHPEPRP
shrunken log2 fold change: 0.0129

RRIRHRPPRLPRPRPRPHQFPRP
shrunken log2 fold change: 0.0262

RRIRHRPPRLPRPRPRPHRAPRP
shrunken log2 fold change: 0.0912

RRIRHRPPRLPRPRPRPHRFPRP
shrunken log2 fold change: -0.162

RRIRHRPPRLPRPRPRPHSTPRP
shrunken log2 fold change: -0.349

RRIRHRPPRLPRPRPRPHTCPRP
shrunken log2 fold change: -0.141

RRIRHRPPRLPRPRPRPHYSPRP
shrunken log2 fold change: -0.142

RRIRHRPPRLPRPRPRPHYWPRP
shrunken log2 fold change: -0.588

RRIRHRPPRLPRPRPRPIDSPRP
shrunken log2 fold change: -0.0116

RRIRHRPPRLPRPRPRPIFKPRP
shrunken log2 fold change: -0.195

RRIRHRPPRLPRPRPRPIFTPRP
shrunken log2 fold change: -0.191

RRIRHRPPRLPRPRPRPIGHPRP
shrunken log2 fold change: -0.0911

RRIRHRPPRLPRPRPRPIHKPRP
shrunken log2 fold change: -1.25

RRIRHRPPRLPRPRPRPIHMPRP
shrunken log2 fold change: -0.141

RRIRHRPPRLPRPRPRPIIKPRP
shrunken log2 fold change: -0.279

RRIRHRPPRLPRPRPRPIIWPRP
shrunken log2 fold change: -0.145

RRIRHRPPRLPRPRPRPIKNPRP
shrunken log2 fold change: -0.563

RRIRHRPPRLPRPRPRPIMTPRP
shrunken log2 fold change: -0.895

RRIRHRPPRLPRPRPRPINDPRP
shrunken log2 fold change: -0.887

RRIRHRPPRLPRPRPRPIPFPRP
shrunken log2 fold change: 0.0406

RRIRHRPPRLPRPRPRPIQFPRP
shrunken log2 fold change: -0.482

RRIRHRPPRLPRPRPRPIQIPRP
shrunken log2 fold change: -0.139

RRIRHRPPRLPRPRPRPISFPRP
shrunken log2 fold change: -0.281

RRIRHRPPRLPRPRPRPIVIPRP
shrunken log2 fold change: -0.158

RRIRHRPPRLPRPRPRPIWQPRP
shrunken log2 fold change: -0.123

RRIRHRPPRLPRPRPRPKAQPRP
shrunken log2 fold change: 0.0148

RRIRHRPPRLPRPRPRPKCWPRP
shrunken log2 fold change: 0.123

RRIRHRPPRLPRPRPRPKDSPRP
shrunken log2 fold change: 0.0292

RRIRHRPPRLPRPRPRPKENPRP
shrunken log2 fold change: -0.0597

RRIRHRPPRLPRPRPRPKESPRP
shrunken log2 fold change: -0.069

RRIRHRPPRLPRPRPRPKFRPRP
shrunken log2 fold change: -0.317

RRIRHRPPRLPRPRPRPKGNPRP
shrunken log2 fold change: -0.124

RRIRHRPPRLPRPRPRPKIEPRP
shrunken log2 fold change: 0.0371

RRIRHRPPRLPRPRPRPKMKPRP
shrunken log2 fold change: -0.232

RRIRHRPPRLPRPRPRPKNMPRP
shrunken log2 fold change: -0.231

RRIRHRPPRLPRPRPRPKNTPRP
shrunken log2 fold change: -0.497

RRIRHRPPRLPRPRPRPKQDPRP
shrunken log2 fold change: -0.557

RRIRHRPPRLPRPRPRPKRWPRP
shrunken log2 fold change: 0.293

RRIRHRPPRLPRPRPRPKTRPRP
shrunken log2 fold change: -0.0214

RRIRHRPPRLPRPRPRPKTWPRP
shrunken log2 fold change: -0.0101

RRIRHRPPRLPRPRPRPKVCPRP
shrunken log2 fold change: -0.19

RRIRHRPPRLPRPRPRPKVKPRP
shrunken log2 fold change: 0.235

RRIRHRPPRLPRPRPRPKVTPRP
shrunken log2 fold change: -0.62

RRIRHRPPRLPRPRPRPKWQPRP
shrunken log2 fold change: 0.0671

RRIRHRPPRLPRPRPRPKWRPRP
shrunken log2 fold change: 0.328

RRIRHRPPRLPRPRPRPKYGPRP
shrunken log2 fold change: 0.0196

RRIRHRPPRLPRPRPRPLAHPRP
shrunken log2 fold change: 0.0514

RRIRHRPPRLPRPRPRPLAMPRP
shrunken log2 fold change: 0.287

RRIRHRPPRLPRPRPRPLCLPRP
shrunken log2 fold change: -0.368

RRIRHRPPRLPRPRPRPLCMPRP
shrunken log2 fold change: -0.708

RRIRHRPPRLPRPRPRPLDQPRP
shrunken log2 fold change: -0.116

RRIRHRPPRLPRPRPRPLEPPRP
shrunken log2 fold change: -0.55

RRIRHRPPRLPRPRPRPLEYPRP
shrunken log2 fold change: -0.168

RRIRHRPPRLPRPRPRPLGPPRP
shrunken log2 fold change: 0.191

RRIRHRPPRLPRPRPRPLHMPRP
shrunken log2 fold change: -0.0732

RRIRHRPPRLPRPRPRPLHRPRP
shrunken log2 fold change: -0.158

RRIRHRPPRLPRPRPRPLHSPRP
shrunken log2 fold change: -0.151

RRIRHRPPRLPRPRPRPLHTPRP
shrunken log2 fold change: 0.143

RRIRHRPPRLPRPRPRPLIWPRP
shrunken log2 fold change: -0.538

RRIRHRPPRLPRPRPRPLKLPRP
shrunken log2 fold change: 0.0187

RRIRHRPPRLPRPRPRPLKQPRP
shrunken log2 fold change: -0.128

RRIRHRPPRLPRPRPRPLKSPRP
shrunken log2 fold change: -0.178

RRIRHRPPRLPRPRPRPLKVPRP
shrunken log2 fold change: 0.0138

RRIRHRPPRLPRPRPRPLKWPRP
shrunken log2 fold change: -0.0708

RRIRHRPPRLPRPRPRPLLKPRP
shrunken log2 fold change: -0.013

RRIRHRPPRLPRPRPRPLLRPRP
shrunken log2 fold change: 0.0548

RRIRHRPPRLPRPRPRPLNEPRP
shrunken log2 fold change: -0.124

RRIRHRPPRLPRPRPRPLNMPRP
shrunken log2 fold change: -1.26

RRIRHRPPRLPRPRPRPLNNPRP
shrunken log2 fold change: -0.684

RRIRHRPPRLPRPRPRPLPIPRP
shrunken log2 fold change: -0.598

RRIRHRPPRLPRPRPRPLRCPRP
shrunken log2 fold change: 0.0647

RRIRHRPPRLPRPRPRPLSFPRP
shrunken log2 fold change: -0.137

RRIRHRPPRLPRPRPRPLSIPRP
shrunken log2 fold change: -0.326

RRIRHRPPRLPRPRPRPLSRPRP
shrunken log2 fold change: 0.172

RRIRHRPPRLPRPRPRPLWVPRP
shrunken log2 fold change: -0.142

RRIRHRPPRLPRPRPRPLWYPRP
shrunken log2 fold change: -0.923

RRIRHRPPRLPRPRPRPLYNPRP
shrunken log2 fold change: -0.459

RRIRHRPPRLPRPRPRPLYVPRP
shrunken log2 fold change: -0.272

RRIRHRPPRLPRPRPRPMAIPRP
shrunken log2 fold change: 0.0143

RRIRHRPPRLPRPRPRPMDCPRP
shrunken log2 fold change: -0.0499

RRIRHRPPRLPRPRPRPMDKPRP
shrunken log2 fold change: -0.123

RRIRHRPPRLPRPRPRPMDWPRP
shrunken log2 fold change: -0.177

RRIRHRPPRLPRPRPRPMECPRP
shrunken log2 fold change: -0.427

RRIRHRPPRLPRPRPRPMFDPRP
shrunken log2 fold change: 0.108

RRIRHRPPRLPRPRPRPMFYPRP
shrunken log2 fold change: -0.446

RRIRHRPPRLPRPRPRPMHPPRP
shrunken log2 fold change: -0.193

RRIRHRPPRLPRPRPRPMITPRP
shrunken log2 fold change: -0.658

RRIRHRPPRLPRPRPRPMLEPRP
shrunken log2 fold change: 0.0721

RRIRHRPPRLPRPRPRPMNFPRP
shrunken log2 fold change: -0.0483

RRIRHRPPRLPRPRPRPMPGPRP
shrunken log2 fold change: -0.0235

RRIRHRPPRLPRPRPRPMQHPRP
shrunken log2 fold change: 0.0685

RRIRHRPPRLPRPRPRPMTHPRP
shrunken log2 fold change: -0.235

RRIRHRPPRLPRPRPRPMVAPRP
shrunken log2 fold change: 0.195

RRIRHRPPRLPRPRPRPMWGPRP
shrunken log2 fold change: -0.234

RRIRHRPPRLPRPRPRPMWSPRP
shrunken log2 fold change: -0.209

RRIRHRPPRLPRPRPRPMWYPRP
shrunken log2 fold change: -0.0997

RRIRHRPPRLPRPRPRPMYNPRP
shrunken log2 fold change: -0.833

RRIRHRPPRLPRPRPRPNACPRP
shrunken log2 fold change: -0.0122
